{"source": "patent US7241873B2", "about": "“Recombinant anti-osteopontin antibody and use thereof” (Juridical Foundation the Chemo-sero-therapeutic Research …, priority 2001, dated 2007)", "molecules": {"B1": {"name": "chimera 2K1 antibody: VH and VL of murine 2K1 antibody (SEQ ID NO: 19, 20) conjugated to human Igγ1 and human Igκ (antibody, V domains shown)", "VH": "QVQLQQSGAELVRPGASVKLSCKALGYTFTDYEMHWVKQTPVHGLEWIGAIHPGRGGTAYNQKFKGKATLTADKSSSTAYMELSSLTSEDSAVYYCTRITGYFDVWGAGTTVTVSS", "VL": "DVLMTQTPLSLPVSLGDQASISCRSSQSIVHSNGNTYLEWYLQKPGQSPKLLIYKVSNRFSGVPDRFSGSGSGTDFTLKISRVEAEDLGVYYCFQGSHVPLTFGAGTKLELKR", "modifications": "human IgG1 and kappa constant regions; Mouse"}}, "key": {"[1]": {"tested_on": "adhesion of murine NIH 3T3 cell to mOPN/de-GST", "test": "Inhibition of NIH 3T3 cell adhesion to murine OPN", "assay_type": "cell-based, mouse", "conditions": "peptide 100 μg/mL, FIG. 15", "source_text": "It was examined by the method described in the reference (S. Kon et al., (2002): J. Cell. Biochem., 84(2), 420–432) as to whether or not the M5 antibody might inhibit cell adhesion to OPN. As the OPN, the full-length murine OPN was used, from which the GST segment had preliminarily been removed with PreScission protease (Amersham Pharmacia Biotech, Tokyo, Japan) (referred to as “mOPN/de-GST” hereinafter) was used. As the cell, murine NIH 3T3 cell was used."}, "[2]": {"tested_on": "adhesion of α9-transformed SW480 cell to nOPN", "test": "Adhesion of α9-transformed SW480 cell to nOPN", "assay_type": "cell-based, human", "conditions": "3 μg/ml nOPN, combination of 200 μM GRGDSP peptide and anti-α9β1 antibody Y9A2, FIG. 2A", "description": "(§1) It was examined by the following method as to whether or not the murine monoclonal antibodies inhibited cell adhesion to OPN. First, a 96-well plate was precoated with various concentrations of the CHO/OPN-a at 4° C. overnight, which was then treated with 0.5% BSA in PBS under conditions of 37° C. for 10 minutes, so as to block non-specific adhesion. A human fibroblast TIG-7 or SW480 cell transformed with the cDNA of an integrin subunit α9 (referred to as “α9-transformed SW480 cell” hereinafter) was suspended in D-MEM containing 0.25% BSA; 200 μl of the resulting cell suspension (at a cell concentration of 5×10^4 cells/well) was injected in a 96-well plate precoated with the CHO/OPN-a or nOPN, in the presence or absence of various concentrations of the monoclonal antibodies or synthetic peptides, for incubation at 37° C. for one hour.\n(§2) The culture medium was discarded from the plate, and all the wells were rinsed twice with D-MEM containing 0.25% BSA. The adherent cells were fixed and stained with 0.5% crystal violet in 20% methanol for 30 minutes.\nAll the wells were rinsed three times with water, and the adherent cells were then solubilized into 20% acetic acid. The resulting supernatant recovered from each well was analyzed with an immunoreader, to measure the absorbance at 590 nm to determine the relative count of the cells adhering to the well. […]"}, "[3]": {"tested_on": "adhesion of human fibroblast TIG-7 to CHO/OPN-a", "test": "Inhibition of TIG-7 cell adhesion to OPN", "assay_type": "cell-based", "conditions": "peptide 100 μg/ml, FIG. 1A", "description": "as §1, §2\nAll the wells were rinsed three times with water, and the adherent cells were then solubilized into 20% acetic acid. The resulting supernatant recovered from each well was analyzed with an immunoreader, to measure the absorbance at 590 nm to determine the relative count of the cells adhering to the well. All the assays were done in a triplicate fashion, and at least three independent experiments were performed. The values shown represent mean at three independent experiments."}, "[4]": {"tested_on": "adhesion of α9-transformed SW480 cell to vitronectin", "test": "Adhesion of α9-transformed SW480 cell to vitronectin", "assay_type": "cell-based, human", "conditions": "1 μg/ml vitronectin, 200 μM peptide, FIG. 2A"}, "[5]": {"tested_on": "mouse collagen arthritis model", "test": "Mouse collagen arthritis model (arthritogenic antibody cocktail/LPS)", "assay_type": "in vivo", "conditions": "text summary of Tables 6 to 9", "description": "For arthritis induction, an arthritogenic antibody cocktail (under the trade name of a cocktail for arthritis, Arthrogen-CIA® mAb, Arthritogenic mAb cocktail; manufactured by Iwai Chemical Pharmaceutical Co., Ltd.) recognizing four epitopes specific to collagen was used. To a mouse was intravenously administered the arthritogenic cocktail; 3 days later, LPS (100 μg) was intraperitoneally administered to thereby elicit arthritis. Arthritis was observed on day 3 after LPS dosing, which reached maximum on day 6.\nImmediately before LPS dosing and 3 days later, the M5 antibody was intravenously administered at a dose of 40 μg, 150 μg or 400 μg. As the control group, a rabbit IgG-dosed group (at a dose of 400 μg) was arranged. Additionally, the anti-mouse TNF-α antibody was intravenously administered at a dose of 200 μg/mouse immediately before LPS administration and 3 days later. As the control group, a rat IgG-dosed group (at a dose of 200 μg) was arranged. Further, MTX was orally given (at a dose of 3.2 mg/kg) once daily on the very day of LPS dosing and thereafter. Then, MTX dissolved in 5 ml of 0.5% methyl cellulose solution was used. For the control group, 5 ml of 0.5% methyl cellulose solution was arranged.\nConcerning four items, namely arthritis score, leg edema, body weight change and feed intake, assessment was done per each group of five animals."}, "[6]": {"biological_target": "partial peptide GRGDSVVYGLR of the human osteopontin (Homo sapiens, UniProt P10451)", "test": "KD assay on BIACORE-2000", "assay_type": "binding", "conditions": "compared with murine 2K1 antibody", "description": "The KD value of the chimera 2K1 antibody was assayed in the following manner. First, a partial peptide GRGDSVVYGLR (residues 7–17 of SEQ ID NO: 1) of the human osteopontin was biotinylated with a biotinylation kit (Dojindo Corporate). A sensor chip SA was set on BIACORE-2000, to bind 23 RU of a ligand (Bin-GRGDSVVYGLR)(residues 7–17 of SEQ ID NO: 1). […] The data of these sensor grams were analyzed by global fitting at 1:1 (Langmuir) binding by a BIACORE analysis software BIA Evaluation Version 3.0. FIG. 6a is a sensor gram at various concentrations of the murine 2K1 antibody. FIG. 6b is a sensor gram at various concentrations of the chimera 2K1 antibody."}, "[7]": {"biological_target": "BSA-crosslinked osteopontin peptide (BSA-CVDTYDGRGDSVVYGLRS) (Homo sapiens, UniProt P10451)", "test": "ELISA binding to osteopontin peptide", "source_text": "Based on the concentrations of the humanized 2K1 antibody and the chimera 2K1 antibody as determined in Example 13, the binding activities of the humanized 2K1 antibody and the chimera 2K1 antibody with osteopontin peptide (CVDTYDGRGDSVVYGLRS) (SEQ ID NO: 1) were compared with reference to the ELISA of Kon et al. (Journal of Cellular […]: 420–432 (2002)).\nDilution series of the humanized 2K1 antibody and the chimera 2K1 antibody reacted on a microtiter plate with BSA-crosslinked osteopontin peptide (BSA-CVDTYDGRGDSVVYGLRS)(SEQ ID NO: 1) immobilized thereon. Then, the antibodies bound to BSA-CVDTYDGRGDSVVYGLRS (SEQ ID NO: 1) reacted with protein A-HRP, and finally with TMB (Dojindo Corporate), to measure the absorbance at a wavelength of 450 nm.\nAdditionally, reaction on a plate with only BSA immobilized thereon as a negative control was also measured in the same manner.\nAs a negative control, additionally, the binding activity of the chimera 2K1 antibody to BSA (open circle) and the binding activity of the humanized 2K1 antibody to BSA (open square) are also shown."}, "[8]": {"tested_on": "human peripheral monocyte migration toward thrombin-cleaved OPN", "test": "Migration of TNF-α-activated human peripheral monocyte toward thrombin-cleaved OPN (chimera 2K1)", "assay_type": "cell-based", "conditions": "for Mean migrating cell counts per 1 mm^3 (monocyte): thrombin-cleaved OPN 10 μg/mL", "description": "First, the blood drawn out from a normal subject with heparin was diluted 2-fold with an RPMI 1640 culture medium. The diluted blood was overlaid on the Ficoll-Paque (Pharmacia), which was then centrifuged at 400×g at ambient temperature for 30 minutes. A white layer observed in the interface between the blood plasma and Ficoll-Paque was recovered and used as a monocyte. The monocyte thus obtained was overnight cultured with human TNF-α (20 ng/mL). The resulting activated monocyte was used for a migration experiment.\nThe migration experiment was done, using a 48-well microchemotaxis chamber (Neuro Probe Inc.). Human OPN reacted with bovine thrombin (Sigma) at 37° C. for 2 hours, for cleavage. After various concentrations of the 2K1 chimera antibody were added to the resulting human […] and left to stand at 37° C. for 15 minutes, the resulting mixture was added to the lower chamber (the final human OPN concentration was 10 μg/mL). Placing a polycarbonate filter (pore size of 5 μm) thereon, 50 μl of a cell suspension (2×10^6 cells/mL) was added to the upper chamber.\nAfter culturing in the presence of 5% CO2 at 37° C. for 2 hours, the polycarbonate filter was removed, while […] with Diff-Quick (Baxter). The cells on the surface of the […] filter were counted at a magnification×40. The results are shown as mean cell count (cells/mm^3)±SD in 6 wells."}}, "data": [{"molecule": "GRGDSP [reference compound]", "values": [{"measurement": "inhibition of NIH 3T3 adhesion to mOPN/de-GST", "setting": "[1]", "result": "apparently inhibited"}, {"measurement": "inhibition of adhesion of α9-transformed SW480 cell to nOPN", "setting": "[2]", "result": "inhibited"}, {"measurement": "inhibition of TIG-7 adhesion to OPN", "setting": "[3]", "result": "apparently inhibited"}, {"measurement": "inhibition of adhesion between vitronectin and α9-transformed SW480 cell", "setting": "[4]", "result": "inhibited"}]}, {"molecule": "CN(Cc1cnc2nc(N)nc(N)c2n1)c1ccc(C(=O)N[C@@H](CCC(=O)O)C(=O)O)cc1", "note": "[MTX]", "values": [{"measurement": "effect on arthritis score, onset of arthritis and leg edema (therapeutic effect)", "setting": "[5]", "result": "almost no pharmaceutical efficacy"}]}, {"molecule": "B1", "values": [{"measurement": "reduction of the affinity due to the chimera preparation", "setting": "[6]", "result": "No reduction"}, {"measurement": "binding activity to BSA-CVDTYDGRGDSVVYGLRS", "setting": "[7]; ELISA, absorbance 450 nm, FIG. 13", "result": "had binding activities"}, {"measurement": "binding activity to BSA (negative control plate)", "setting": "[7]; ELISA, plate with only BSA immobilized", "result": "not to BSA"}, {"measurement": "comparison of binding activities of both antibodies to BSA-CVDTYDGRGDSVVYGLRS", "setting": "[7]; humanized versus chimera 2K1 antibody", "result": "at the same level"}, {"measurement": "inhibition of migration of TNF-α-activated human peripheral neutrophil and monocyte toward thrombin-cleavage-type OPN", "setting": "[8]; summary of Table 3", "result": "inhibited"}, {"measurement": "Mean migrating cell counts per 1 mm^3 (monocyte)", "setting": "[8]; antibody 12.5 μ/mL", "result": "1010.0 ± 59.1", "unit": "counts per 1 mm^3"}, {"measurement": "Mean migrating cell counts per 1 mm^3 (monocyte)", "setting": "[8]; antibody 25 μ/mL", "result": "1153.3 ± 96.2", "unit": "counts per 1 mm^3"}, {"measurement": "Mean migrating cell counts per 1 mm^3 (monocyte)", "setting": "[8]; antibody 50 μ/mL", "result": "895.0 ± 78.0", "unit": "counts per 1 mm^3"}, {"measurement": "Mean migrating cell counts per 1 mm^3 (monocyte)", "setting": "[8]; antibody 100 μ/mL", "result": "821.7 ± 50.2", "unit": "counts per 1 mm^3"}, {"measurement": "Mean migrating cell counts per 1 mm^3 (monocyte)", "setting": "[8]; antibody 250 μ/mL", "result": "865.0 ± 64.9", "unit": "counts per 1 mm^3"}, {"measurement": "Mean migrating cell counts per 1 mm^3 (monocyte)", "setting": "[8]; antibody 500 μ/mL", "result": "830.0 ± 44.1", "unit": "counts per 1 mm^3"}]}]}
